Starred links: 1 amine or outer side, 2 acyl side, 3 side chain; linkers in the order of their positions; H or OH if unused. Positions of bridges follow the written chain, without caps; N, C: chain ends. Non-standard residues stand in square brackets, D forms with d. Primed or numbered codes have the meaning given here. PyrS2″ = (S)-3-amino-1-((pent-4-en-1-yloxy)carbonyl)pyrrolidine-3-carboxylic acid (stapling residue), C=CCCCOC(=O)N1CC[C@@](N[*:1])(C(=O)[*:2])C1; B5(30) = 2-amino-2-(pent-4-en-1-yl)hept-6-enoic acid (2,2-bis(4-pentenyl)glycine, stitching residue), C=CCCCC(CCCC=C)(N[*:1])C(=O)[*:2]; B5(4) = 2,2-bis(4-pentenyl)glycine = 2-amino-2-(pent-4-en-1-yl)hept-6-enoic acid (stitching residue), C=CCCCC(CCCC=C)(N[*:1])C(=O)[*:2]; B5(5) = 2,2-bis(4-pentenyl)glycine, 2-amino-2-(pent-4-en-1-yl)hept-6-enoic acid (stitching residue), C=CCCCC(CCCC=C)(N[*:1])C(=O)[*:2]; PyrS2 = (S)-3-amino-1-((pent-4-en-1-yloxy)carbonyl)pyrrolidine-3-carboxylic acid, C=CCCCOC(=O)N1CC[C@@](N[*:1])(C(=O)[*:2])C1; B5(3) = 2,2-bis(4-pentenyl)glycine (stitching residue), C=CCCCC(CCCC=C)(N[*:1])C(=O)[*:2]; B5 = 2-amino-2-(pent-4-en-1-yl)hept-6-enoic acid, C=CCCCC(CCCC=C)(N[*:1])C(=O)[*:2]; Phe(3-COOH) = N[C@@H](Cc1cccc(C(=O)O)c1)C(=O)O; Trp(5-F) = N[C@@H](Cc1c[nH]c2ccc(F)cc12)C(=O)O; Phe(2-CF3) = N[C@@H](Cc1ccccc1C(F)(F)F)C(=O)O; Trp(1-Me) = Cn1cc(C[C@H](N)C(=O)O)c2ccccc21; Phe(2-Cl) = N[C@@H](Cc1ccccc1Cl)C(=O)O; 1Nal = N[C@@H](Cc1cccc2ccccc12)C(=O)O; Bta = N[C@@H](Cc1csc2ccccc12)C(=O)O; αAllylPro = C=CC[C@@]1(C(=O)O)CCCN1; tBuAla = CC(C)(C)C[C@H](N)C(=O)O; 3Thi = N[C@@H](Cc1ccsc1)C(=O)O; S8 = C=CCCCCCC[C@](C)(N)C(=O)O; Thr(ol) = C[C@@H](O)[C@H](N)CO
B1: I-1343 (peptide)
peptide: Ac-[αAllylPro]D[tBuAla][B5(4)]D[Phe(3-COOH)]AAFF[PyrS2″][Phe(2-CF3)][Bta][Thr(ol)]
modifications: staple 1-4, 4-11
B2: I-1303 (peptide)
peptide: Ac-[αAllylPro]D[tBuAla][B5(5)]DDAAFF[PyrS2][3Thi][Bta][Thr(ol)]
modifications: staple 1-4, 4-11
B3: I-1302 (peptide)
peptide: Ac-[αAllylPro]D[tBuAla][B5(5)]DDAAFL[PyrS2][3Thi][Bta][Thr(ol)]
modifications: staple 1-4, 4-11
B4: I-1304 (peptide)
peptide: Ac-[αAllylPro]N[tBuAla][B5(5)]DDAAFL[PyrS2][3Thi][Bta][Thr(ol)]
modifications: staple 1-4, 4-11
B5: I-800 (peptide)
peptide: Ac-[αAllylPro]D[tBuAla][B5]DDAAFN[PyrS2][3Thi][Trp(5-F)]H-NH2
modifications: staple 1-4, 4-11
B6: I-789 (peptide)
peptide: Ac-[αAllylPro]D[tBuAla][B5(5)]DDAAFN[PyrS2][3Thi][1Nal]H-NH2
modifications: staple 1-4, 4-11
B7: I-799 (peptide)
peptide: Ac-[αAllylPro]D[tBuAla][B5]DDAAFN[PyrS2][3Thi][Trp(1-Me)]H-NH2
modifications: staple 1-4, 4-11
B8: I-785 (peptide)
peptide: Ac-[αAllylPro]D[tBuAla][B5(5)]DDAAFN[PyrS2][3Thi][Bta]-NH2
modifications: staple 1-4, 4-11
B9: I-1087 (peptide)
peptide: Ac-[αAllylPro]D[tBuAla][B5(4)]DDAAFT[S8][Phe(2-Cl)][Bta]Q-NH2
modifications: staple 1-4, 4-11; also: later-eluting HPLC peak staple isomer composition
B10: I-1097 (peptide)
peptide: Ac-[αAllylPro]D[tBuAla][B5(5)]DDAAFL[S8][Phe(2-Cl)][Bta][dT]-NH2
modifications: staple 1-4, 4-11
B11: I-1082 (peptide)
peptide: Ac-[αAllylPro]D[tBuAla][B5(4)]DDAAFN[PyrS2″][Phe(2-Cl)][Bta][Thr(ol)]
modifications: staple 1-4, 4-11
B12: I-1890 (peptide)
peptide: Ac-[αAllylPro]D[tBuAla][B5(5)]DRAAFN[PyrS2][3Thi][Bta]Q-NH2
modifications: staple 1-4, 4-11; not fully specified; printed as Ac-PL3-Asp-Npg-B5-Asp-Arg-Ala-Ala-Phe-Asn-PyrS2-3Thi-BztA-Gln-NH2
B13: I-1892 (peptide)
peptide: Ac-[αAllylPro]D[tBuAla][B5(30)]NRAAFN[PyrS2][3Thi][Bta]Q-NH2
modifications: staple 1-4, 4-11; also: earlier-eluting HPLC isomer

biological target: full-length beta-Catenin (Uniprot ID P35222) (Homo sapiens (Human)) (UniProt P35222); assay: FP competition, full-length beta-catenin, competitor probe 5FAM-TCF4 10-53
Target sequence in this assay (P35222 2-781 limits assumed): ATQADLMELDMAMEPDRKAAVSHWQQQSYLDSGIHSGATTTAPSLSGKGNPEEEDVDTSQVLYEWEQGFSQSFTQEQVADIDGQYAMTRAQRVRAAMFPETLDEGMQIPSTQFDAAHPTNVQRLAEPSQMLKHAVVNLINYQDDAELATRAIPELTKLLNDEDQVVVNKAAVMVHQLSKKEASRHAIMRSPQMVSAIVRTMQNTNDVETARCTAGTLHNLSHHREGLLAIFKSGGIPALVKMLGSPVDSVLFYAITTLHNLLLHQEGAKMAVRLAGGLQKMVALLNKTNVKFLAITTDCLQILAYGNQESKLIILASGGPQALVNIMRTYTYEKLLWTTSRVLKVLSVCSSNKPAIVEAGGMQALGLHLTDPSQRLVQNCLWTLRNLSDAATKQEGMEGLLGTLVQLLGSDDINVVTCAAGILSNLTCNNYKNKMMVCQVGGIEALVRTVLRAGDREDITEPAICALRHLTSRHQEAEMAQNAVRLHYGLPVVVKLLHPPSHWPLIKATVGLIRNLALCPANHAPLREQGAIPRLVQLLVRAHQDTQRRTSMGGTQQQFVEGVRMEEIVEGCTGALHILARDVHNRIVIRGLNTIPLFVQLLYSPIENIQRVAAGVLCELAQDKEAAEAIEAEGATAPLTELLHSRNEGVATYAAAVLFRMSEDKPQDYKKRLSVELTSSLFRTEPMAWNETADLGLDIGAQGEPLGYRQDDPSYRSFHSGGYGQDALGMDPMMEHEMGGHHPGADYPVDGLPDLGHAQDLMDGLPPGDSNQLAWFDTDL

| IC50 [nM] | Binder |
| --- | --- |
| 150 | B1 |

biological target: full-length beta-Catenin (Uniprot ID P35222) (Homo sapiens (Human)) (UniProt P35222); assay: fluorescence polarization competition; full-length beta-catenin + 5FAM-TCF4(10-53) probe
Target sequence in this assay (P35222 whole entry, one chain of several): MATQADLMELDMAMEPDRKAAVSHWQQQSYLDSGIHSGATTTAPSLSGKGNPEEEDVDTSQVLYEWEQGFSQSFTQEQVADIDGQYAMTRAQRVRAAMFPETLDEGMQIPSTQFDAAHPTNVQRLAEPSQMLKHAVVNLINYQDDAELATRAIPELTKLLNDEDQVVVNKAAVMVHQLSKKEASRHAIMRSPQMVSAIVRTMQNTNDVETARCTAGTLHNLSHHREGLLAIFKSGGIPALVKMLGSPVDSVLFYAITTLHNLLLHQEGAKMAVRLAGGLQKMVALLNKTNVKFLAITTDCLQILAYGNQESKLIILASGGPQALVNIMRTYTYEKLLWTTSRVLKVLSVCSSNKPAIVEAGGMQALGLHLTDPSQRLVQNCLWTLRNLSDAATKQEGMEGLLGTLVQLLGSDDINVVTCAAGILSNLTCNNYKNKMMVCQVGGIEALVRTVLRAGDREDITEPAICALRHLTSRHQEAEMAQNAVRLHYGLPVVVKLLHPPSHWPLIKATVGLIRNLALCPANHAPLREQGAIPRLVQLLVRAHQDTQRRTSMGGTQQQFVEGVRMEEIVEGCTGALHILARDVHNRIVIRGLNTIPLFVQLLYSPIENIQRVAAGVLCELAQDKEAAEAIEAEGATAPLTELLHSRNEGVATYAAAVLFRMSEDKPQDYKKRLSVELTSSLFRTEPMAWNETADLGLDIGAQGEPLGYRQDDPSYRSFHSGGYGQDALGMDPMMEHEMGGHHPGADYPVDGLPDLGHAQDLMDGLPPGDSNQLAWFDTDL

| EC50 [nM] | Binder |
| --- | --- |
| 86 | B2 |
| 45 | B3 |
| 31 | B4 |

biological target: full-length beta-Catenin (Uniprot ID P35222) (Homo sapiens (Human)) (UniProt P35222); assay: fluorescence polarization competition: peptide titrated against 10 nM full-length beta-catenin + 10 nM 5FAM-TCF4(10-53) probe
Target sequence in this assay (P35222 2-781 limits assumed): as the sequence (P35222 2-781 limits assumed) above

| EC50 [nM] | Binder |
| --- | --- |
| 79 | B5 |
| 19 | B6 |
| 92 | B7 |
| 6 | B8 |

biological target: full-length beta-Catenin (Uniprot ID P35222) (Homo sapiens (Human)) (UniProt P35222); assay: fluorescence polarization competition; peptide displaces 5FAM-TCF4(10-53) from full-length beta-catenin
Target sequence in this assay (P35222 2-781 limits assumed): as above

| IC50 [nM] | Binder |
| --- | --- |
| 19 | B6 |
| 6 | B8 |

biological target: full-length beta-Catenin (Uniprot ID P35222) (Homo sapiens (Human)) (UniProt P35222); assay: cell-based or functional assay
Target sequence in this assay (P35222 2-781 limits assumed): as above

| DLD1 reporter assay Abs IC50 [nM] | Binder |
| --- | --- |
| > 20000 | B9 |
| > 20000 | B10 |
| 4800 | B11 |

biological target: full-length beta-Catenin (Uniprot ID P35222) (Homo sapiens (Human)) (UniProt P35222); assay: fluorescence polarization competition; peptide titrated against 5FAM-TCF4(10-53) bound to full-length beta-catenin
Target sequence in this assay (P35222 whole entry, one chain of several): as the sequence (P35222 whole entry, one chain of several) above

| IC50 [nM] | Binder |
| --- | --- |
| 31 | B12 |
| 1420 | B13 |

biological target: full-length beta-Catenin (Uniprot ID P35222) (Homo sapiens (Human)) (UniProt P35222); assay: fluorescence polarization competition; 10 nM full-length beta-catenin with 10 nM 5FAM-TCF4(10-53) probe as competitor
Target sequence in this assay (P35222 2-781 limits assumed): as the sequence (P35222 2-781 limits assumed) above

| IC50 [nM] | Binder |
| --- | --- |
| 79 | B5 |
| 92 | B7 |

biological target: full-length beta-Catenin (Uniprot ID P35222) (Homo sapiens (Human)) (UniProt P35222); assay: fluorescence polarization competition; full-length beta-catenin + 5FAM-TCF4 10-53 probe
Target sequence in this assay (P35222 2-781 limits assumed): as above

| IC50 [nM] | Binder |
| --- | --- |
| 86 | B2 |
| 45 | B3 |
| 31 | B4 |

biological target: Bcat-Halo (UniProt P35222); assay: NanoBRET Abs IC50 in HEK293 cells; Bcat-Halo with TCF4-Luc as competitor
Sequence (P35222 whole entry): as the sequence (P35222 whole entry, one chain of several) above

| IC50 [nM] | Binder |
| --- | --- |
| 9300 | B9 |
| > 20000 | B10 |
| 14100 | B11 |

biological target: full-length beta-Catenin (Uniprot ID P35222) (Homo sapiens (Human)) (UniProt P35222); assay: fluorescence polarization competition; full-length beta-catenin, competitor 5FAM-TCF4(10-53) probe

| EC50 [nM] | Binder |
| --- | --- |
| 150 | B1 |

biological target: full-length beta-Catenin (Uniprot ID P35222) (Homo sapiens (Human)) (UniProt P35222); assay: fluorescence polarization competition; peptide titrated against 10 nM full-length beta-catenin + 10 nM 5FAM-TCF4(10-53)

| IC50 [nM] | Binder |
| --- | --- |
| 9 | B9 |
| 5 | B11 |

biological target: B-cat-Halo (beta-catenin HaloTag NanoBRET construct expressed in HEK293 cells) (UniProt P35222); assay: NanoBRET in HEK293 cells, Bcat-Halo + TCF4-Luc, peptide at 10 uM
Sequence (P35222 whole entry): as the sequence (P35222 whole entry, one chain of several) above

| NanoBRET % inh @ 10 uM [%] | Binder |
| --- | --- |
| 8.1 | B5 |
| 9.7 | B6 |
| 0.9 | B7 |
| 31 | B8 |

biological target: full-length beta-Catenin (Uniprot ID P35222) (Homo sapiens (Human)) (UniProt P35222); assay: fluorescence polarization competition; full-length beta-catenin + 5FAM-TCF4(10-53) probe as competitor

| EC50 [nM] | Binder |
| --- | --- |
| 9 | B9 |
| 40 | B10 |
| 5 | B11 |

biological target: full-length beta-Catenin (Uniprot ID P35222) (Homo sapiens (Human)) (UniProt P35222); assay: fluorescence polarization competition; displacement of 5FAM-TCF4(10-53) from full-length beta-catenin
Target sequence in this assay (P35222 whole entry, one chain of several): as above

| IC50 [nM] | Binder |
| --- | --- |
| 40 | B10 |

Source: patent US20240116985A1, “STAPLED PEPTIDES AND METHODS THEREOF” (priority 2020, published 2024)
